Laboratory results reported in patent US20250026849A1 (ARCELLX, published 2025).
Positions count from the first letter of the chain named. One block for each binder: values may come before it.

Target: T1, BCMA (Homo sapiens (Human), UniProt Q02223 1-54, limits assumed)
T1 sequence: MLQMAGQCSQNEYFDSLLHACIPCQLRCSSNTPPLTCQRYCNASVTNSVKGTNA
Experiment: ELISA, format not described
Set-up: unit not given here

ELISA_avg: 17.3
B1: D-domain SEQ ID NO: 127 (designed binder)
chain: MGSWFEFQYRLEAIFYRLLALGGSEAELAAFEKEIAAFESELQAYKGKGKPEVEELRVRAALIRHLLQAYRHN

ELISA_avg: 6.04
B2: D-domain SEQ ID NO: 125 (designed binder)
chain: MGSWYEFHYRLKAINDRLYALGGSEAELAAFEKEIAAFESELQAYKGKGNPEVEYLRYSAAMIRHKLQAYRHN

ELISA_avg: 8.87
B3: D-domain SEQ ID NO: 126 (designed binder)
chain: B2 chain with Y5T, Y9Q, K12G, N15H, D16A, Y19G, Y58F, M62F, H65L

ELISA_avg: 3.39
B4: D-domain SEQ ID NO: 115 (designed binder)
chain: MGSWNEFSGRLTAIKDRLAALGGSEAELAAFEKEIAAFESELQAYKGKGNPEVEELRFRAAVIRLWLQAYRHN

ELISA_avg: 8.96
B5: D-domain SEQ ID NO: 116 (designed binder)
chain: MGSWVEFDERLVAIWFRLHALGGSEAELAAFEKEIAAFESELQAYKGKGNPEVEALRARAAYIRIWLQAYRHN

ELISA_avg: 14
B6: D-domain SEQ ID NO: 117 (designed binder)
chain: B5 chain with V5S, D8G, E9Q, V12S, F16E, H19L, R59D, Y62F

ELISA_avg: 8.93
B7: D-domain SEQ ID NO: 132 (designed binder)
chain: B5 chain with E9R, W15Y, F16I, H19W, A58D, R59D, Y62L, I65L, W66L

ELISA_avg: 5.77
B8: D-domain SEQ ID NO: 137 (designed binder)
chain: MGSWVEFDRRLIAIWVRLWALGGSEAELAAFEKEIAAFESELQAYKGKGNPEVEFLRSDAAMIREHLQAYRHN

ELISA_avg: 9.45
B9: D-domain SEQ ID NO: 136 (designed binder)
chain: B8 chain with V5I, V16I, F55S, M62D, E65Q, H66K

ELISA_avg: 9.82
B10: D-domain SEQ ID NO: 134 (designed binder)
chain: B8 chain with V5L, I12T, W15Y, V16L, F55A, S58E, E65D, H66M

ELISA_avg: 8
B11: D-domain SEQ ID NO: 133 (designed binder)
chain: B8 chain with I12V, W15Y, V16I, F55K, S58Y, M62T, H66T

ELISA_avg: 15.4
B12: D-domain SEQ ID NO: 129 (designed binder)
chain: MGSWVEFGTRLSAIYNRLWALGGSEAELAAFEKEIAAFESELQAYKGKGNPEVEDLRFEAAIIRIMLQAYRHN

ELISA_avg: 13.9
B13: D-domain SEQ ID NO: 130 (designed binder)
chain: B12 chain with G8T, T9H, S12D, N16I, D55E, F58H, I62V, I65E, M66E

ELISA_avg: 5.35
B14: D-domain SEQ ID NO: 139 (designed binder)
chain: B12 chain with V5S, G8S, N16V, D55Y, F58N, E59K, I62S, I65K, M66T

ELISA_avg: 12.7
B15: D-domain SEQ ID NO: 122 (designed binder)
chain: MGSWLEFHYRLHAIQFRLYALGGSEAELAAFEKEIAAFESELQAYKGKGNPEVETLRHIAALIRNQLQAYRHN

ELISA_avg: 13.7
B16: D-domain SEQ ID NO: 135 (designed binder)
chain: B8 chain with V5I, I12L, W15H, F55V, S58A, M62K, E65M, H66E

ELISA_avg: 4.06
B17: D-domain SEQ ID NO: 138 (designed binder)
chain: B8 chain with V5Y, D8H, R9T, W15Y, F55W, S58G, M62K, E65G, H66Y

ELISA_avg: 4.93
B18: D-domain SEQ ID NO: 118 (designed binder)
chain: MGSWYEFEDRLVAIWIRLDALGGSEAELAAFEKEIAAFESELQAYKGKGNPEVEELRYNAAFIRGALQAYRHN

ELISA_avg: 3.28
B19: D-domain SEQ ID NO: 145 (designed binder)
chain: MGSWEEFYGRLSAIQDRLWALGGSEAELAAFEKEIAAFESELQAYKGKGNPEVEWLRMHAAVIRRALQAYRHN

ELISA_avg: 10.8
B20: D-domain SEQ ID NO: 140 (designed binder)
chain: MGSWVEFRYRLGAIYHRLWALGGSEAELAAFEKEIAAFESELQAYKGKGNPEVEVLRDRAATIRRLLQAYRHN

ELISA_avg: 3.8
B21: D-domain SEQ ID NO: 128 (designed binder)
chain: MGSWVEFHARLDAIYTRLGALGGSEAELAAFEKEIAAFESELQAYKGKGNPEVEYLRVLAAHIRISLQAYRHN

ELISA_avg: 3.93
B22: D-domain SEQ ID NO: 149 (designed binder)
chain: MGSWMEFEGRLPAILARLRALGGSEAELAAFEKEIAAFESELQAYKGKGNPEVEHLRDKAAYIRWMLQAYRHN

ELISA_avg: 5.39
B23: D-domain SEQ ID NO: 150 (designed binder)
chain: B22 chain with M5F, E8Q, G9N, P12Q, A16F, H55N, W65L

ELISA_avg: 8.32
B24: D-domain SEQ ID NO: 148 (designed binder)
chain: B22 chain with E8Q

ELISA_avg: 8.89
B25: D-domain SEQ ID NO: 119 (designed binder)
chain: MGSWYEFGDRLSAIWERLAALGGSEAELAAFEKEIAAFESELQAYKGKGNPEVEYLRTHAAEIRTILQAYRHN

ELISA_avg: 4.7
B26: D-domain SEQ ID NO: 141 (designed binder)
chain: MGSWNEFRNRLGAIDSRLWALGGSEAELAAFEKEIAAFESELQAYKGKGNPEVETLRAHAAIIRSVLQAYRHN

ELISA_avg: 3
B27: D-domain SEQ ID NO: 144 (designed binder)
chain: B26 chain with R8Y, G12H, D15N, S16L, T55V, A58E, S65Q, V66A

ELISA_avg: 3.49
B28: D-domain SEQ ID NO: 142 (designed binder)
chain: B26 chain with N5H, H59R, I62M

ELISA_avg: 9.54
B29: D-domain SEQ ID NO: 111 (designed binder)
chain: MGSWTEFDHRLGAIWERLVALGGSEAELAAFEKEIAAFESELQAYKGKGNPEVEELRFHAAIIRIFLQAYRHN

ELISA_avg: 5.22
B30: D-domain SEQ ID NO: 185 (designed binder)
chain: MGSWVEFWDRLGAIRERLQALGGSEAELAAFEKEIAAFESELQAYKGKGNPEVEKLRYTAAAIRHYLQAYRHN

ELISA_avg: 7.56
B31: D-domain SEQ ID NO: 197 (designed binder)
chain: B30 chain with V5S, D9V, Q19D, A62T, H65R, Y66F
notes: also called bc40

ELISA_avg: 9.87
B32: D-domain SEQ ID NO: 113 (designed binder)
chain: B29 chain with T5N, H9N, G12Q, E16D, V19H, I62M, F66T

ELISA_avg: 23.5
B33: D-domain SEQ ID NO: 196 (designed binder)
chain: B30 chain with V5S, D9V, E16D, Q19D, K55A, Y58V, A62Q

ELISA_avg: 16
B34: D-domain SEQ ID NO: 195 (designed binder)
chain: B30 chain with E16D, Q19D, K55E, Y58N, A62Y, H65T, Y66F

ELISA_avg: 3.93
B35: D-domain SEQ ID NO: 209 (designed binder)
chain: MGSWEEFDNRLEAIFDRLEALGGSEAELAAFEKEIAAFESELQAYKGKGNPEVEELREFAATIRITLQAYRHN

ELISA_avg: 16.1
B36: D-domain SEQ ID NO: 202 (designed binder)
chain: B30 chain with V5S, G12T, E16V, Q19D, A62H, H65K, Y66F

ELISA_avg: 12.5
B37: D-domain SEQ ID NO: 214 (designed binder)
chain: MGSWTEFWARLYAIEMRLFALGGSEAELAAFEKEIAAFESELQAYKGKGNPEVEHLRRVAALIREQLQAYRHN

ELISA_avg: 4.85
B38: D-domain SEQ ID NO: 121 (designed binder)
chain: MGSWSEFEERLAAIGSRLFALGGSEAELAAFEKEIAAFESELQAYKGKGNPEVETLRFDAALIRIYLQAYRHN

ELISA_avg: 23.6
B39: D-domain SEQ ID NO: 112 (designed binder)
chain: B29 chain with D8H, H9V, G12S, E16D, F66V

ELISA_avg: 4.18
B40: D-domain SEQ ID NO: 193 (designed binder)
chain: B30 chain with Q19E, T59V, A62V, Y66R

ELISA_avg: 19.9
B41: D-domain SEQ ID NO: 206 (designed binder)
chain: B35 chain with E5V, D8W, N9H, E12G, F15Y, E58R, F59T, T62L, I65Q

ELISA_avg: 14.6
B42: D-domain SEQ ID NO: 207 (designed binder)
chain: B30 chain with D9N, R15Y, E16D, Q19E, Y58H, A62V, H65L

ELISA_avg: 12.5
B43: D-domain SEQ ID NO: 205 (designed binder)
chain: B30 chain with V5T, D9V, G12N, E16D, Q19E, K55D, Y58H, A62I, H65N

ELISA_avg: 18.8
B44: D-domain SEQ ID NO: 208 (designed binder)
chain: B35 chain with E5S, D8W, N9E, F15Y, E19Y, E58R, F59T, I65S, T66F

ELISA_avg: 12.8
B45: D-domain SEQ ID NO: 204 (designed binder)
chain: B30 chain with V5F, G12A, E16D, Q19E, K55D, T59V, A62K, H65V, Y66R

ELISA_avg: 3.07
B46: D-domain SEQ ID NO: 194 (designed binder)
chain: B30 chain with K55E, Y58A, T59S, H65I, Y66A

ELISA_avg: 12.1
B47: D-domain SEQ ID NO: 114 (designed binder)
chain: B29 chain with D8H, H9E, G12Q, E16F, V19H, H59R, I65L, F66Y

ELISA_avg: 3.73
B48: D-domain SEQ ID NO: 120 (designed binder)
chain: B38 chain with S5H, E8Y, E9Y, A12E, G15E, S16Q, F19H

ELISA_avg: 12.8
B49: D-domain SEQ ID NO: 146 (designed binder)
chain: B8 chain with V5G, D8N, R9L, I12V, W15H, D59Q, M62N, E65A, H66Q

ELISA_avg: 4.26
B50: D-domain SEQ ID NO: 147 (designed binder)
chain: MGSWGEFSDRLEAINERLWALGGSEAELAAFEKEIAAFESELQAYKGKGNPEVEELRWQAAFIRANLQAYRHN

ELISA_avg: 6.47
B51: D-domain SEQ ID NO: 123 (designed binder)
chain: MGSWQEFYNRLEAIHMRLFALGGSEAELAAFEKEIAAFESELQAYKGKGNPEVEGLRSDAAPIRDVLQAYRHN

ELISA_avg: 3.88
B52: D-domain SEQ ID NO: 124 (designed binder)
chain: MGSWNEFHHRLWAIFDRLGALGGSEAELAAFEKEIAAFESELQAYKGKGNPEVEVLRKMAAGIRGGLQAYRHN

ELISA_avg: 6.96
B53: D-domain SEQ ID NO: 143 (designed binder)
chain: MGSWTEFYQRLEAINFRLWALGGSEAELAAFEKEIAAFESELQAYKGKGNPEVEVLRDKAALIRLMLQAYRHN

ELISA_avg: 4
B54: D-domain SEQ ID NO: 131 (designed binder)
chain: MGSWVEFHGRLAAIYVRLFALGGSEAELAAFEKEIAAFESELQAYKGKGNPEVESLRYHAAMIRRNLQAYRHN
